T1: IL-18 receptor (IL-18Rαβ) on cells (UniProt Q13478 19-541; O95256 20-599, limits assumed)
T1 sequence (looked up) 1: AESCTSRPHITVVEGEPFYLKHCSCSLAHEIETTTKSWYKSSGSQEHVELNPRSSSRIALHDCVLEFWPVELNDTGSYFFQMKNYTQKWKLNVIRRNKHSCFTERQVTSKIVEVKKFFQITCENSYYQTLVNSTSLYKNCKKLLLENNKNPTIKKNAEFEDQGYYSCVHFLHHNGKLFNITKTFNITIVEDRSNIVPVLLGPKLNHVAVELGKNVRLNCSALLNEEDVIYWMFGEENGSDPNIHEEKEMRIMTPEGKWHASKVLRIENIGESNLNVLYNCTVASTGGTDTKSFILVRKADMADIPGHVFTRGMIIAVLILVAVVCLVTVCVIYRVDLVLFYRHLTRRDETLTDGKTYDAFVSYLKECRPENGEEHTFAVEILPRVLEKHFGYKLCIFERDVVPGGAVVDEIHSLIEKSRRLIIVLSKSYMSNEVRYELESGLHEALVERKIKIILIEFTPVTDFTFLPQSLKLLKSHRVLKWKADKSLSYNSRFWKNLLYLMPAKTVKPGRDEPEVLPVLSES
T1 sequence (looked up) 2: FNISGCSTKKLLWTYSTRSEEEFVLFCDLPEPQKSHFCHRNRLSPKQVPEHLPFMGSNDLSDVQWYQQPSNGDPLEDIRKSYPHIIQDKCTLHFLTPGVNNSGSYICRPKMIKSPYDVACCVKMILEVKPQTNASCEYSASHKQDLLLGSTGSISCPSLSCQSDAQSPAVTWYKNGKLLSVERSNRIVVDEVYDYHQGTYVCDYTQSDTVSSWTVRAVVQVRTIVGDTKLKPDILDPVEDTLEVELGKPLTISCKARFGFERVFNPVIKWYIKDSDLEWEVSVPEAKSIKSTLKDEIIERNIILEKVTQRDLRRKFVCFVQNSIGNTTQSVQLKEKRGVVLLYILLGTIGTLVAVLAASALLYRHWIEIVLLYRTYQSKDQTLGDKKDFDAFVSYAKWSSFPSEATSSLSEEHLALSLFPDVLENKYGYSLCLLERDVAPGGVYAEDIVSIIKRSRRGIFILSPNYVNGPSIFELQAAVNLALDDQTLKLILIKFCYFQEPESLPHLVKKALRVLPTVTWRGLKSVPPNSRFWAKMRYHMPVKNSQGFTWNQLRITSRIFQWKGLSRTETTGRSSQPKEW

B1: C176 (E6K, V11I, C38A, I49M, K53A, T63A, C76A, C127A) (ligand)
chain: YFGKLKSKLSIIRNLNDQVLFIDQGNRPLFEDMTDSDARDNAPRTIFIMSMYADSQPRGMAVAISVKCEKISTLSAENKIISFKEMNPPDNIKDTKSDIIFFQRSVPGHDNKMQFESSSYEGYFLAAEKERDLFKLILKKEDELGDRSIMFTVQNED
B2: C181 (E6K, V11I, C38A, K53A, T63A, C76A, C127A, V153E) (ligand)
chain: YFGKLKSKLSIIRNLNDQVLFIDQGNRPLFEDMTDSDARDNAPRTIFIISMYADSQPRGMAVAISVKCEKISTLSAENKIISFKEMNPPDNIKDTKSDIIFFQRSVPGHDNKMQFESSSYEGYFLAAEKERDLFKLILKKEDELGDRSIMFTEQNED
B3: IL-18 polypeptide SEQ ID NO: 56 (E6K, K53A, C38S, C76S, C127S) (ligand)
chain: YFGKLKSKLSVIRNLNDQVLFIDQGNRPLFEDMTDSDSRDNAPRTIFIISMYADSQPRGMAVTISVKCEKISTLSSENKIISFKEMNPPDNIKDTKSDIIFFQRSVPGHDNKMQFESSSYEGYFLASEKERDLFKLILKKEDELGDRSIMFTVQNED
B4: C178 (E6K, V11I, C38A, K53A, T63A, C76A, Q103R, C127A) (ligand)
chain: YFGKLKSKLSIIRNLNDQVLFIDQGNRPLFEDMTDSDARDNAPRTIFIISMYADSQPRGMAVAISVKCEKISTLSAENKIISFKEMNPPDNIKDTKSDIIFFRRSVPGHDNKMQFESSSYEGYFLAAEKERDLFKLILKKEDELGDRSIMFTVQNED
B5: C182 (E6K, V11I, C38A, K53A, T63A, C76A, C127A, V153Y) (ligand)
chain: YFGKLKSKLSIIRNLNDQVLFIDQGNRPLFEDMTDSDARDNAPRTIFIISMYADSQPRGMAVAISVKCEKISTLSAENKIISFKEMNPPDNIKDTKSDIIFFQRSVPGHDNKMQFESSSYEGYFLAAEKERDLFKLILKKEDELGDRSIMFTYQNED
B6: C183 (SEQ ID NO: 80; E6K, V11I, C38A, M51G, K53A, T63A, C76A, C127A) (ligand)
chain: YFGKLKSKLSIIRNLNDQVLFIDQGNRPLFEDMTDSDARDNAPRTIFIISGYADSQPRGMAVAISVKCEKISTLSAENKIISFKEMNPPDNIKDTKSDIIFFQRSVPGHDNKMQFESSSYEGYFLAAEKERDLFKLILKKEDELGDRSIMFTVQNED
B7: C177 (E6K, V11I, C38A, I49R, K53A, T63A, C76A, C127A) (ligand)
chain: YFGKLKSKLSIIRNLNDQVLFIDQGNRPLFEDMTDSDARDNAPRTIFIRSMYADSQPRGMAVAISVKCEKISTLSAENKIISFKEMNPPDNIKDTKSDIIFFQRSVPGHDNKMQFESSSYEGYFLAAEKERDLFKLILKKEDELGDRSIMFTVQNED
B8: C174 (K8L, E6K, V11I, C38A, K53A, T63A, C76A, C127A) (ligand)
chain: YFGKLKSLLSIIRNLNDQVLFIDQGNRPLFEDMTDSDARDNAPRTIFIISMYADSQPRGMAVAISVKCEKISTLSAENKIISFKEMNPPDNIKDTKSDIIFFQRSVPGHDNKMQFESSSYEGYFLAAEKERDLFKLILKKEDELGDRSIMFTVQNED
B9: C142 (Y1M, E6K, V11I, C38A, K53A, T63A, C76A, C127A) (ligand)
chain: MFGKLKSKLSIIRNLNDQVLFIDQGNRPLFEDMTDSDARDNAPRTIFIISMYADSQPRGMAVAISVKCEKISTLSAENKIISFKEMNPPDNIKDTKSDIIFFQRSVPGHDNKMQFESSSYEGYFLAAEKERDLFKLILKKEDELGDRSIMFTVQNED
B10: C184 (E6R, V11I, C38A, K53A, T63A, C76A, C127A) (ligand)
chain: YFGKLRSKLSIIRNLNDQVLFIDQGNRPLFEDMTDSDARDNAPRTIFIISMYADSQPRGMAVAISVKCEKISTLSAENKIISFKEMNPPDNIKDTKSDIIFFQRSVPGHDNKMQFESSSYEGYFLAAEKERDLFKLILKKEDELGDRSIMFTVQNED
B11: C179 (E6K, K8E, V11I, C38A, K53A, T63A, C76A, Q103R, C127A) (ligand)
chain: YFGKLKSELSIIRNLNDQVLFIDQGNRPLFEDMTDSDARDNAPRTIFIISMYADSQPRGMAVAISVKCEKISTLSAENKIISFKEMNPPDNIKDTKSDIIFFRRSVPGHDNKMQFESSSYEGYFLAAEKERDLFKLILKKEDELGDRSIMFTVQNED
B12: C140 (SEQ ID NO: 83; N-terminal 4xG, E6K, V11I, C38A, K53A, T63A, C76A, C127A) (ligand)
chain: GGGGYFGKLKSKLSIIRNLNDQVLFIDQGNRPLFEDMTDSDARDNAPRTIFIISMYADSQPRGMAVAISVKCEKISTLSAENKIISFKEMNPPDNIKDTKSDIIFFQRSVPGHDNKMQFESSSYEGYFLAAEKERDLFKLILKKEDELGDRSIMFTVQNED
B13: C141 (SEQ ID NO: 82; N-terminal G, E6K, V11I, C38A, K53A, T63A, C76A, C127A) (ligand)
chain: GYFGKLKSKLSIIRNLNDQVLFIDQGNRPLFEDMTDSDARDNAPRTIFIISMYADSQPRGMAVAISVKCEKISTLSAENKIISFKEMNPPDNIKDTKSDIIFFQRSVPGHDNKMQFESSSYEGYFLAAEKERDLFKLILKKEDELGDRSIMFTVQNED
B14: C192 (SEQ ID NO: 81; N-terminal G, E6K, V11I, C38A, M51G, K53A, T63A, C76A, C127A) (ligand)
chain: GYFGKLKSKLSIIRNLNDQVLFIDQGNRPLFEDMTDSDARDNAPRTIFIISGYADSQPRGMAVAISVKCEKISTLSAENKIISFKEMNPPDNIKDTKSDIIFFQRSVPGHDNKMQFESSSYEGYFLAAEKERDLFKLILKKEDELGDRSIMFTVQNED
B15: IL-18 polypeptide SEQ ID NO: 43 (E06K, K53A, S55A, Y01G) (ligand)
chain: GFGKLKSKLSVIRNLNDQVLFIDQGNRPLFEDMTDSDCRDNAPRTIFIISMYADAQPRGMAVTISVKCEKISTLSCENKIISFKEMNPPDNIKDTKSDIIFFQRSVPGHDNKMQFESSSYEGYFLACEKERDLFKLILKKEDELGDRSIMFTVQNED
B16: IL-18 polypeptide SEQ ID NO: 44 (E06K, K53A, S55A, F02A) (ligand)
chain: YAGKLKSKLSVIRNLNDQVLFIDQGNRPLFEDMTDSDCRDNAPRTIFIISMYADAQPRGMAVTISVKCEKISTLSCENKIISFKEMNPPDNIKDTKSDIIFFQRSVPGHDNKMQFESSSYEGYFLACEKERDLFKLILKKEDELGDRSIMFTVQNED
B17: IL-18 polypeptide SEQ ID NO: 45 (E06K, K53A, S55A, D54A) (ligand)
chain: YFGKLKSKLSVIRNLNDQVLFIDQGNRPLFEDMTDSDCRDNAPRTIFIISMYAAAQPRGMAVTISVKCEKISTLSCENKIISFKEMNPPDNIKDTKSDIIFFQRSVPGHDNKMQFESSSYEGYFLACEKERDLFKLILKKEDELGDRSIMFTVQNED
B18: IL-18 polypeptide SEQ ID NO: 49 (E06K, K53A, S55A, C38S, C68S, C76S, C127S, K70C) (ligand)
chain: YFGKLKSKLSVIRNLNDQVLFIDQGNRPLFEDMTDSDSRDNAPRTIFIISMYADAQPRGMAVTISVKSECISTLSSENKIISFKEMNPPDNIKDTKSDIIFFQRSVPGHDNKMQFESSSYEGYFLASEKERDLFKLILKKEDELGDRSIMFTVQNED
B19: IL-18 polypeptide SEQ ID NO: 46 (E06K, K53A, S55A, M51G) (ligand)
chain: YFGKLKSKLSVIRNLNDQVLFIDQGNRPLFEDMTDSDCRDNAPRTIFIISGYADAQPRGMAVTISVKCEKISTLSCENKIISFKEMNPPDNIKDTKSDIIFFQRSVPGHDNKMQFESSSYEGYFLACEKERDLFKLILKKEDELGDRSIMFTVQNED
B20: IL-18 polypeptide SEQ ID NO: 48 (C38S, C68S, C76S, C127S, K70C) (ligand)
chain: YFGKLESKLSVIRNLNDQVLFIDQGNRPLFEDMTDSDSRDNAPRTIFIISMYKDSQPRGMAVTISVKSECISTLSSENKIISFKEMNPPDNIKDTKSDIIFFQRSVPGHDNKMQFESSSYEGYFLASEKERDLFKLILKKEDELGDRSIMFTVQNED
B21: IL-18 polypeptide SEQ ID NO: 55 (K53A, T63A, C38S, C68S, C76S, C127S, K70C) (ligand)
chain: YFGKLESKLSVIRNLNDQVLFIDQGNRPLFEDMTDSDSRDNAPRTIFIISMYADSQPRGMAVAISVKSECISTLSSENKIISFKEMNPPDNIKDTKSDIIFFQRSVPGHDNKMQFESSSYEGYFLASEKERDLFKLILKKEDELGDRSIMFTVQNED
B22: IL-18 polypeptide SEQ ID NO: 6 (E6K, V11I, C38A, K53A, T63A, C68A, C76A, D98C, C127A) (ligand)
chain: YFGKLKSKLSIIRNLNDQVLFIDQGNRPLFEDMTDSDARDNAPRTIFIISMYADSQPRGMAVAISVKAEKISTLSAENKIISFKEMNPPDNIKDTKSCIIFFQRSVPGHDNKMQFESSSYEGYFLAAEKERDLFKLILKKEDELGDRSIMFTVQNED
B23: IL-18 polypeptide SEQ ID NO: 47 (C38S, C68S, C76S, C127S) (ligand)
chain: YFGKLESKLSVIRNLNDQVLFIDQGNRPLFEDMTDSDSRDNAPRTIFIISMYKDSQPRGMAVTISVKSEKISTLSSENKIISFKEMNPPDNIKDTKSDIIFFQRSVPGHDNKMQFESSSYEGYFLASEKERDLFKLILKKEDELGDRSIMFTVQNED

These binders were tested against T1, IL-18 receptor (IL-18Rαβ) on cells (assay: cell-based or functional assay).

Point of comparison: B13, “EC50 (pM), HEK-Blue IL-18R reporter assay” value 1.68 pM. Against it:
- B1 — lower, 0.07 pM
- B2 — lower, 0.1 pM
- B3 — higher, 3.73 pM
- B4 — lower, 0.26 pM
- B5 — lower, 0.08 pM
- B6 — lower, 0.1 pM
- B7 — lower, 0.04 pM
- B8 — lower, 0.29 pM
- B9 — lower, 0.02 pM
- B10 — lower, 0.04 pM
- B11 — lower, 0.4 pM
- B12 — higher, 2.5 pM
- B14 — higher, 14 pM

Target: T1, IL-18 receptor (IL-18Rαβ) on cells
Experiment: cell-based or functional assay
Remark: another data set of the same source

Point of comparison: B17, “EC50 (nM), IFNγ induction, NK-92 cells” value 30 nM. Against it:
- B15 — 4.9-fold lower, 6.12 nM
- B16 — higher, > 1000 nM
- B18 — 1.9-fold higher, 58.5 nM
- B19 — 4.1-fold lower, 7.4 nM
- B20 — 61-fold lower, 0.488 nM
- B21 — 1.7-fold lower, 17.2 nM
- B22 — 22-fold lower, 1.37 nM
- B23 — 260-fold lower, 0.115 nM
